experiment: soluble fraction after stress (log2 fold change); higher = more stays soluble; pooled small domains, quantitative proteomics; details: stress: 50 degC
How it was run: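 Quantitative proteomics served as the high-throughput read-out for pooled custom libraries of small protein domains. Each was stressed at 50°C. Aggregation propensity is expressed as the base-two log fold change in soluble protein after stress. A higher value means a larger share of the protein remains in solution.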

| Sequence | soluble fraction (log2) |
| --- | --- |
| HMDPSWVPVFNNLRDAILSHQLLPGTRLAEDELSNIYGLGRTVIRSALGALTHEGLLTHIPNRGVHVAKP | -0.819 |
| HMTKYEKKIFEIVNASRDHLTAEQVLAALREEYPAVSQATVYNNLKKLTSDGLLRKLTLADSPDRYD | -0.208 |
| HMDTYDSIDSILEERHLSRRKLAQAIGLPPSTFQSMMSRKSGMTLEVLMKIVSYLQVSPDAFW | -2.12 |
| HMSASAIYVRPKDVKEPEEVADYLSGVLELDREKLYKKITDKSQWIALIERKVDNDIAFDIRNKKFKGIEI | -0.0243 |
| HMDINLGIGPLVKKYRTIKGYSIRELARNINVTASMLSQIERDIVNPSINTLKAISVELGVPMYKFFM | -2.33 |
| HMSVTSIEGRVVYDENANKIGIAKQVGIDSTQSMVLVLTKNDGTEGSISWNNIKKIGEIILLGN | -0.369 |
| HMLALKSGQVVVGTIIRRLDNTTAMLRIGNQLFETSFAKGLPKSNHILLRYDAMQGNRFIFTMVE | -0.191 |
| HMRTMRHLSVPRQETQQILSQLKAEFALPQGARVQPDPSDSKRTLIPVKEGAESELLSRYPVVHAEP | 0.0847 |
| HMDQEDAYMQVRQVFDTLLVSELSKRIFAWRFFEGKSFAEWPGAESQKFLYDTFNRILLIISAKIRRKNA | -0.0448 |
| HMTLTPEQQAARRSEIVDIALRLIAENGFQKTSMREIADLAKMGKSSLYDFFKTKDEIAVYAMEKK | -0.283 |
| HMHHSGLRQSQFDEISRQIRSLLEMESLSLQELKTRMEDVPEEQLTKVVSYLLSEEIIRQENGRLQ | -0.0768 |
| HMSRAMFEMHADWQPTDSIRGLLGRAGLPTDIAKLDQSRIGDFVNHWFGKPDRNTADSWNGLLVGWLKRTQ | -1.18 |
| HMVAGHLQEKNGYFYIVLNYTNHEGKRKSKWITTGLTVKGNKKRAQDLLQEARKTFVPDIPT | -1.19 |
| HMRLANGIGTVYKLSGNRRNPYIVRKTTGWEIDEESGKAKQKYITIGYAPTRAKGLEMLMDYNKNP | -0.428 |
| HMPDLQDTLYRLVPEDGSAIGNQSLREKFLSTAKDASDADFEAARDGLVEQGKLTKGKGRGGSVRRAEP | 0.389 |
| HMLRISLAAARVNAEMTQEDVAREMHVSKNTVVNWEKGKSEPTISQSRELSKLYNMPLEYIFYL | -3.05 |
| HMGIKYTNQRVEILNFLKDNLSHPTVDDVYEGVKKKLTRISKATVYQNLKFLASKGLIQEVNIKGVSRFEP | -1.32 |
| HMIKKLDIEPIIKSVVDDFNNIYKLKRGITISYLNDGKNKYFINGIENRIEQIIANLLDNSISFSEDNKDV | 0.0041 |
| HMDAAANTLRILKALSESPMSADRLAELLMEEGSGRNPRTIRRYIRALREAGFGVEHREGRYVL | -0.381 |
| HMQVLLTRREKEILKLIAEGLTSAEIGKRLFISTTTVDTHRKHLLEKLKAGNTAILIKTAVQLDLI | -1.26 |
| HMHPEQTLEKIVDISAELFAKKGYEQTSIQDILDATGLSKGGLYHHFKSKEEILEAVMQKRVQY | 0.0883 |
| HMSESEDFQNRWRPWRSLLDDETPVVREALVDQLKLFPEEGRLFLQQMSEEDDPISARHAFELIKSLGW | -0.132 |
| HMGPSLDAVREQIRDLIAEEDKSAPYSDLSLVAELEKRGIHISRRTIAKYRGEMGIPNSDQRRYF | 0.0495 |
| HMPQTNIYPNPAFDKLFVSNLENETNFKIMDLFGRTIINSKTKGEISISELKSGIYIIEINNFRQKFVK | -0.839 |
| HMGLIAPMPGQIRSVAVSVGDVVKKGQTLLTMEAMKMEIRIQALKDGRVTALHAAQGQTVEGEQILIEVE | -0.000533 |
| HMTIGEALLNLRKQLGLNQTEMAANVVSTSFYSKVERNIHDIGTKDLLQILNKHQINATYFFENLN | -1.91 |

| Sequence | soluble fraction (log2) |
| --- | --- |
| HMFVVVPDLIGKTINQFEEDLSELNLKYVVSDSGNFNPEFKINAVLDQSPKANSKVKDGRKIYLTLNAS | -0.432 |
| HMGKPTPASQVATRWLAGDLPETLPVAGPAPSFETLARSVSTDFHPRAVLQELLRLGVAEEADGRVRLLK | 0.00959 |
| HMSWAGRRSLAALEARYRDETGISNLKIKHNGVLGYHIEVPSKSADKLMAPDSGFTHRQTLAGAVR | 0.0529 |
| HMNTPNYDVLYRGLADADAGQIMEALQKSNIPFKVDSHSGVLLVPADQVHEARLKLASQGLPRG | 0.0262 |
| HMLGARSLNEAVARNLPQILAKYQLIHIAGKNGFNPELQGRGYVQYEYVDTELKDLMALADIVVSR | -1.33 |
| HMEISTEVPLRGGTISEEALEALNRLPGVTASNIDGKSISVDVADNAELRVSDINQVLAVHSPDTRV | 0.209 |
| HMDKPIVFLEDTKAHKSSDLQSPVYMTVPKGTIAFVIAEKGDWSQVYAGRVLDRNLASQWVRRGFS | 0.227 |
| HMGRSARVQQAVHQAVRALLEENDGERSALSVPLVAERAGVNSSTIYRRWGDLPRLLAAVASN | -0.481 |
| HMVIVMRKDADAASIEKVVSEVKSRGFMPHVSEGESRTLIGAIGPAPTEELREHFAGLAGVETVVRITK | 0.113 |
| HMTAKQDLDSIYRHLVATRKSIAENPKMVSSIDDPQALIKMLDYAIQYFYTDKRDEALAVLEKNEEQLNFR | -0.117 |
| HMTDSISLTLNGDPRPFRAGATVADLVRDIGLDPAKVAVERNLEIVPRSTLENVHLADGDVLEIVHFV | 0.0403 |
| HMHGESISVPDLRGQKMERMPAFLADKHLQFKVIDSLFDLEKNPGTVLEQDPAPNSKVKEGRTIYLTVNAQ | -0.022 |
| HMTVSKLKVINYTIRNGDSLWTISRKFNVTVDKVKEWNGLSDRTLLQPGQKLTLYVDPTIQISH | -0.0925 |
| HMSPRADRSVNLDVGETVQIDDWGADGTAQIRYRGAPWTAVLRPGHTPHPGPHRVIELVGSRLLVEP | -0.0121 |
| HMEIVSTEEKIKRAAEQVFLLRGLEGARMQEIADVAGINKAMLHYYFRNKETLFDVILSEKL | -1.51 |
| HMGASFITSSKDNAINIRESATTDSKVIETIKNGEILESTEKSGDWHKVTYYNSEIKKSFTGYIHNSQLK | 0.168 |
| HMDPLPDEVQEVIDMVDGFKAMDELSEADKADVKAAYDAYNALSAEHKAMVPEHIVTFLNRAYDKLFD | 0.0291 |
| HMLQIADEYLDRLQALFEDVRDNHFAIGDLLVELVDMHDSRRVDVINYIAGRLAISPTTLYDYENTARR | -0.792 |
| HMSIESPEEFNAKFPPGSEIYATNIQKNAIVQSPANAKGDVEILANSMRLTINFRFISKRDT | 0.0469 |
| HMANKTVPNVSGKTVAEARAIIENQSLQVGEEKEEYSDSVAEGYIIRTNPTAGSQKKEQSKIDLVVSKG | 0.203 |
| HMADKNIIGVLSAADNLGKVRITTANGEKYIITVPDGLSDIVKTYWEEEVSVKYVIEKRRKILVDIDG | -1.67 |
| HMKHSEAIELGKRMLSQALQDVSLVLKKIPEERLQAVAAELNLKTPDELFEKIGLGERLAALVARRLLP | -0.207 |
| HMGMYAEERHQAIASLARKHGRVSVAELAERFNVTSETIRRDLDSLARRGLLTRVHGGAVPVE | 0.0963 |
| HMKDGMRVYITYHDSEEEPEKPIGDGTTKGWHTNSTASVVWISQKVAESADLGIWGDPIRIKGEA | -0.14 |
| HMVSFAEQASDWLAHFDRLGDVGPDTTLTDLTARDAEFSAWVNEGIHHRVAFLETLAAWHRTER | -0.774 |
| HMDLSYPFTTVTTDNVNMRRSASSSSVVLERIDKGDSITVLGTSGNYYKVSYNDRTGYVLKQYVDVSAATT | -0.173 |

| Sequence | soluble fraction (log2) |
| --- | --- |
| HMRLSDSEFESIENAIKEKLENSALTADVLVKELSFDEDKIWKVIRWLEDAEKISEDEAGTLLWKPR | -0.22 |
| HMKFNEKQNEVRIAIMNFIIDNKRPFHMKQDGYDALEGITLSGRHEFQDILDVLHSRDGFSADEEGNINF | -1.51 |
| HMPLLKIGAQGHDVRVVQEALQRAGYAIEGVTGIFDEATREAVLAFQRDQQLTESGTVDRATWHALRR | 0.134 |
| HMTTMYKSDVKGINYDVKAKSWFLRITFNGNQIPIGHFKTEEDAINVKQQLIPYIESKDYTSILAVKAKYS | -0.4 |
| HMYLPLREVVFNALRTAIIHGEFKPGERLMEMHLAKSLGVSRTPVREAMRMLELEGLVVMIPKKGAEVAR | -3.13 |
| HMHEYSRIYQQQWWDNATGADAYHVIHSARSRAAQDPEAARALEYLEEQFRIRYGVRTEDFLGYLHD | -0.411 |
| HMRPHDDHLREQLLGIATETIARTGVEGLSLRTLATDAGTSTSAVYQLFGSRAALLDAVYLRVLE | -1.26 |
| HMELEIPGELIEAVRRLRDERQRMRLAGELAARQIQMHPERYTEASIDPVQTWDELRARILALA | -0.248 |
| HMNSILFAITKEGGVVYGGKPVGVNGVRPLVRRLLQSEEMPVILQVDEKADAGLVIRVIDESKLGGASKV | -0.269 |
| HMSPILTPDQATKAYGKDGVLYIHSNKERTIYIYDVTGRTVRILEAVEGENQINGLEKGIYFLEGQKVAV | -0.233 |
| HMTVPDVKGMGARDAVFLLETLGFKVRINGIGQVYEQSIDPGKSYSKGEFISLRL | -0.51 |
| HMSITKDNLSIGTNIRISGFSDIGRIISIPNKGNQVQVQIGSAKMNIKINSIVEIIKEEKDFNKNISN | -0.102 |
| HMKTFSFEILADTVKKQRKAKGMTQAELSEATGINRSMIGQMENMTFKPSIEQLEALSQALDFNVIDLYTE | -0.196 |
| HMLLSHTAQREGELLTFLRGELALSSGLVKRLKWQNAFFLDGAPVHTNARVKPGQEITVRIEE | -0.143 |
| HMNRKLKAKATREKIYKSAEKLFSQNDYNKVSVDAIVEAAGVAKGSFYVHFASKDALIAMLINDH | -0.179 |
| HMTGQHFDLEDTDGNLVYEIDSTVPLKTFYIYDAMHTEIFRMTKELLHALPTYRFYLYGEPYGVLKKQ | -0.174 |
| HMKPQIRRHEKITALVREHGFMSVEQLARELEVTPQTIRRDIGILSAENVLRRYHGGAALGD | -0.586 |
| HMTYTGTVTGVDEGGLRVRSSTSTENTSNVITKVYTGDTFDVLDTVYNGSAKWYKIGFTYNGTYTYGYVSA | -1.17 |
| HMPSQLPLAFARRHGVLLRGFSNGLAQLTVRPEVSTLSLAETRRHLGVPLALEKVTTERFDQLLREAYEA | -0.37 |
| HMNIEANLEDILRRAMPSAAKLILENSLNINKIIGTGKEGRITKGDVLLYLKDKNLILENILN | -0.173 |
| HMSGEMGIIVAKRLPIRSEPDELATRAFVLKAGTRVKIVKHLNGWLEIVHDGKAGYVQDLEVYVRVIG | -0.524 |
| HMYVPEVPVPDLLGRSEEEAKNLIEDLGLVFKVSKREYSKEYDEGHVMEQSVDEGAKVKENYPVEVVISR | 0.196 |
| HMDLFSAVVHHIVGQQISTKAQATIWKRMRDEFGVVDAAAVLGAGVEKLQSFGMTFRKAEYITDFARKIE | -2.51 |
| HMDPALSPAEQKIWDLLAAGETHIDDLVRASGLPVATVNSALVMMEMKEVISQVAAKTYRRNRRN | -0.0324 |

From the domain aggregation screens of Martell et al. (2025)
